# Assay results as given in the supplement of paper PMC11246515.
# ± gives the standard deviation of the averaged measurements.
# Assay: total protein half-life in vivo (active degradation + dilution); higher = more stable protein
# [1] = E. coli NCM3722 delta-clpP delta-lon delta-hslV, growth: N-lim chemostat, doubling time 6 h
# [2] = E. coli NCM3722 delta-clpP, growth: N-lim chemostat, doubling time 6 h
# [3] = E. coli NCM3722 delta-hslV, growth: N-lim chemostat, doubling time 6 h
# [4] = E. coli NCM3722 delta-smpB, growth: N-lim chemostat, doubling time 6 h
# [5] = wild type E. coli NCM3722, growth: C-lim chemostat, doubling time 3 h
# [6] = wild type E. coli NCM3722, growth: C-lim chemostat, doubling time 6 h
# [7] = wild type E. coli NCM3722, growth: C-lim chemostat, doubling time 12 h
# [8] = wild type E. coli NCM3722, growth: N-lim chemostat, doubling time 6 h
# [9] = wild type E. coli NCM3722, growth: N-lim chemostat, doubling time 12 h
# [10] = wild type E. coli NCM3722, growth: P-lim chemostat, doubling time 6 h
# [11] = wild type E. coli NCM3722, growth: P-lim chemostat, doubling time 12 h
# [12] = E. coli NCM3722 delta-lon, growth: N-lim chemostat, doubling time 6 h
Sequence,total protein half-life in vivo [1] [h],total protein half-life in vivo [2] [h],total protein half-life in vivo [3] [h],total protein half-life in vivo [4] [h],total protein half-life in vivo [5] [h],total protein half-life in vivo [6] [h],total protein half-life in vivo [7] [h],total protein half-life in vivo [8] [h],total protein half-life in vivo [9] [h],total protein half-life in vivo [10] [h],total protein half-life in vivo [11] [h],total protein half-life in vivo [12] [h]
MKIRALLVAMSVATVLTGCQNMDSNGLLSSGAEAFQAYSLSDAQVKTLSDQACQEMDSKATIAPANSEYAKRLTTIANALGNNINGQPVNYKVYMAKDVNAFAMANGCIRVYSGLMDMMTDNEVEAVIGHEMGHVALGHVKKGMQVALGTNAVRVAAASAGGIVGSLSQSQLGNLGEKLVNSQFSQRQEAEADDYSYDLLRQRGISPAGLATSFEKLAKLEEGRQSSMFDDHPASAERAQHIRDRMSADGIK,5.03 ± 0.95,5.9 ± 0.43,5.87 ± 0.4,3.99 ± 0.98,2.69 ± 0.21,5.11 ± 0.41,8.35 ± 1.9,6.22 ± 0.35,10.2 ± 2.9,3.16 ± 0.24,9.05 ± 5.4,
MKISLVVPVFNEEEAIPIFYKTVREFEELKSYEVEIVFINDGSKDATESIINALAVSDPLVVPLSFTRNFGKEPALFAGLDHATGDAIIPIDVDLQDPIEVIPHLIEKWQAGADMVLAKRSDRSTDGRLKRKTAEWFYKLHNKISNPKIEENVGDFRLMSRDVVENIKLMPERNLFMKGILSWVGGKTDIVEYVRAERIAGDTKFNGWKLWNLALEGITSFSTFPLRIWTYIGLVVASVAFIYGAWMILDTIIFGNAVRGYPSLLVSILFLGGIQMIGIGVLGEYIGRTYIETKKRPKYIIKRVKK,6.26 ± 0.44,6.88 ± 1.2,7.42 ± 0.82,6.23 ± 0.34,3.54 ± 0.22,6.05 ± 0.38,,6.19 ± 0.16,,6.08 ± 0.13,13.7 ± 0.2,
MKISRETLHQLIENKLCQAGLKREHAATVAEVLVYADARGIHSHGAVRVEYYAERISKGGTNREPEFRLEETGPCSAILHADNAAGQVAAKMGMEHAIKTAQQNGVAVVGISRMGHSGAISYFVQQAARAGFIGISMCQSDPMVVPFGGAEIYYGTNPLAFAAPGEGDEILTFDMATTVQAWGKVLDARSRNMSIPDTWAVDKNGVPTTDPFAVHALLPAAGPKGYGLMMMIDVLSGVLLGLPFGRQVSSMYDDLHAGRNLGQLHIVINPNFFSSSELFRQHLSQTMRELNAITPAPGFNQVYYPGQDQDIKQRKAAVEGIEIVDDIYQYLISDALYNTSYETKNPFAQ,,,,,2.88,5.52 ± 0.59,,,,,> 16,
MKITKITTYRLPPRWMFLKIETDEGVVGWGEPVIEGRARTVEAAVHELGDYLIGQDPSRINDLWQVMYRAGFYRGGPILMSAIAGIDQALWDIKGKVLNAPVWQLMGGLVRDKIKAYSWVGGDRPADVIDGIKTLREIGFDTFKLNGCEELGLIDNSRAVDAAVNTVAQIREAFGNQIEFGLDFHGRVSAPMAKVLIKELEPYRPLFIEEPVLAEQAEYYPKLAAQTHIPLAAGERMFSRFDFKRVLEAGGISILQPDLSHAGGITECYKIAGMAEAYDVTLAPHCPLGPIALAACLHIDFVSYNAVLQEQSMGIHYNKGAELLDFVKNKEDFSMVGGFFKPLTKPGLGVEIDEAKVIEFSKNAPDWRNPLWRHEDNSVAEW [Q6BF17],3.02 ± 0.17,1.75 ± 0.17,,1.27 ± 0.18,2.67 ± 0.21,3.47 ± 0.4,5.79 ± 0.88,2.5,1.84,4.36 ± 0.18,7.25 ± 0.96,
MKIVIAPDSYKESLSASEVAQAIEKGFREIFPDAQYVSVPVADGGEGTVEAMIAATQGAERHAWVTGPLGEKVNASWGISGDGKTAFIEMAAASGLELVPAEKRDPLVTTSRGTGELILQALESGATNIIIGIGGSATNDGGAGMVQALGAKLCDANGNEIGFGGGSLNTLNDIDISGLDPRLKDCVIRVACDVTNPLVGDNGASRIFGPQKGASEAMIVELDNNLSHYAEVIKKALHVDVKDVPGAGAAGGMGAALMAFLGAELKSGIEIVTTALNLEEHIHDCTLVITGEGRIDSQSIHGKVPIGVANVAKKYHKPVIGIAGSLTDDVGVVHQHGIDAVFSVLTSIGTLDEAFRGAYDNICRASRNIAATLAIGMRNAG,3.21 ± 0.32,2.26 ± 0.32,,3.17 ± 1.2,3.01 ± 0.68,5.02 ± 1.3,9.27 ± 0.37,2.08 ± 0.076,10.9,5.89 ± 0.76,10.4 ± 2.5,2.05
MKKAGLLFLVMIVIAVVAAGIGYWKLTGEESDTLRKIVLEECLPNQQQNQNPSPCAEVKPNAGYVVLKDLNGPLQYLLMPTYRINGTESPLLTDPSTPNFFWLAWQARDFMSKKYGQPVPDRAVSLAINSRTGRTQNHFHIHISCIRPDVRKQLDNNLANISSRWLPLPGGLRGHEYLARRVTESELVQRSPFMMLAEEVPEAREHMGRYGLAMVRQSDNSFVLLATQRNLLTLNRASAEEIQDHQCEILR,6.38 ± 0.31,6.726 ± 0.048,6.364 ± 0.022,6.59 ± 0.21,3.17 ± 0.07,7.09 ± 1,12.8 ± 0.32,6.45 ± 0.28,,6.13 ± 0.2,13.6 ± 0.51,
MKKALQVAMFSLFTVIGFNAQANEHHHETMSEAQPQVISATGVVKGIDLESKKITIHHDPIAAVNWPEMTMRFTITPQTKMSEIKTGDKVAFNFVQQGNLSLLQDIKVSQ,,2.72,5.07 ± 1,4.22,2.8,4.69,6.31 ± 4.1,4.84 ± 0.35,7.67 ± 1.3,4.39 ± 1,7.41 ± 1.9,5.07 ± 0.12
